Assay results from US6331664A, “Acyl-ACP thioesterase nucleic acids from maize and methods of altering palmitic acid levels in transgenic plants therewith” (Dow AgroSciences LLC, priority 1998, dated 2001).
Where two headings read alike, the source gives them in different places.

Experiments:
12:0-ACP (Laurate) [1] = molecular target: 12:0-ACP (Laurate)
14:0-ACP (Myristate) [2] = molecular target: 14:0-ACP (Myristate)
16:0-ACP (Palmitate) [3] = molecular target: 16:0-ACP (Palmitate)
18:0-ACP (Stearate) [4] = molecular target: 18:0-ACP (Stearate)
18:1-ACP (Oleate) [5] = molecular target: 18:1-ACP (Oleate)
maize PTE = assay: Thioesterase assay, substrate specificity of partially purified maize PTE expressed in E. coli; assay type: biochemical; conditions: for Percent Relative Activity: 10 μM radio-labeled acyl-ACP, 30° C., 5 min, 100% = 2.1 units/mg protein
Description: (§1) For enzymatic analysis of E coli expressed maize PTE, substrates were made as follows: ACP (Sigma Chemical Co.) was further purified by three cycles of precipitation at pH 4.0 using 10% (v/v) acetic acid followed by resolubilization in 50 mM Tris-HCl, pH 8.0. Carbon-14 or tritium-labeled fatty acids (lauric, 12:0; myristic, 14:0; palmitic, 16:0; stearic, 18:0; and oleic, 18:1) were obtained from Amersham (Arlington Heights, Ill.) or NEN Research Products. Acyl-ACPs were synthesized and purified according to Rock et al., ((1981) Methods in Enzymology, 72:397-403). Thioesterase assays were conducted according to Ohlrogge et al., ((1978) Arch. Biochem. Biophys. 189:382-391) with slight modifications. A standard reaction contained […] Tris-HCl, pH 8.0, 10 μM radio-labeled acyl-ACP (50-58 μCi/μmol), and enzyme in 50 μL. Reactions were conducted at 30° C. for 5 min and terminated with 200 μL of 10% (v/v) acetic acid. Free fatty acids were extracted twice with 1 mL hexane and the organic phases were combined for liquid scintillation counting. Protein concentrations were determined according to Bradford ((1976) Anal. Biochem. […]:248-254). Linear regressions were used for determination of kinetic constants from double reciprocal plots.

maize OTE [6] = assay: Thioesterase assay, substrate specificity and Km of maize OTE purified from kernels; assay type: biochemical; conditions: for activity relative to that observed with 18:1-ACP: C14-labeled acyl-ACPs; for Km: double reciprocal plots
Description: as §1
The resolubilized PEG-precipitated material was applied to hydroxyapatite (HA-Ultrogel, Sigma Chemical Co.) which had been previously loaded into a 2.5×20 cm column equilibrated with buffer A. After loading, the column was washed with 300 mL of buffer A and maize OTE activity was eluted with buffer A having 1 M NaCl. Enzymatic activity was followed using C^14 labeled 18:1-ACP as substrate. Production of substrate and biochemical assays were performed as described herein. Fractions having thioesterase activity were pooled and desalted to 20 mM Tris, pH 7.0, 0.4 mM DTT (buffer B) on PD-10 columns (Pharmacia). The desalted fraction was then applied to a MonoQ HR 10/10 column (Pharmacia) and the enzyme was eluted using a linear gradient of 0-0.5 M NaCl in buffer B over 30 min. at a flow rate of 4 mL/min. Fractions were assayed for activity and active fractions were pooled and desalted on PD-10 columns (Pharmacia) equilibrated with buffer A.
The substrate specificity of purified maize OTE was analyzed using several C^14 -labeled acyl-ACPs as described herein. […] Low activities (less than 10% of that observed with 18:1-ACP) were observed when using 12:0-ACP, 14:0-ACP, 16:0-ACP, 18:0-ACP.

maize OTE [7] = assay: Thioesterase assay, substrate specificity of maize OTE expressed in E. coli; assay type: biochemical; conditions: for Percent Relative Activity: radio-labeled acyl-ACP, 100% = 2.1 units/mg protein
12:0-ACP (Laurate) [8] = molecular target: 12:0-ACP (Laurate); remark: listed apart in the source
14:0-ACP (Myristate) [9] = molecular target: 14:0-ACP (Myristate); remark: listed apart in the source
16:0-ACP (Palmitate) [10] = molecular target: 16:0-ACP (Palmitate); remark: listed apart in the source
18:0-ACP (Stearate) [11] = molecular target: 18:0-ACP (Stearate); remark: listed apart in the source
18:1-ACP (Oleate) [12] = molecular target: 18:1-ACP (Oleate); remark: listed apart in the source
12:0-ACP (Laurate) [13] = molecular target: 12:0-ACP (Laurate); remark: listed apart in the source
14:0-ACP (Myristate) [14] = molecular target: 14:0-ACP (Myristate); remark: listed apart in the source
16:0-ACP (Palmitate) [15] = molecular target: 16:0-ACP (Palmitate); remark: listed apart in the source
18:0-ACP (Stearate) [16] = molecular target: 18:0-ACP (Stearate); remark: listed apart in the source
18:1-ACP (Oleate) [17] = molecular target: 18:1-ACP (Oleate); remark: listed apart in the source

“maize palmitoyl-ACP thioesterase, mature protein expressed in E. coli (pDAB378) (enzyme)” gave a Percent Relative Activity (thioesterase assay, release of radio-labeled free fatty acid) (% relative activity) (12:0-ACP (Laurate) [1]) of 0, a Percent Relative Activity (thioesterase assay, release of radio-labeled free fatty acid) (% relative activity) (14:0-ACP (Myristate) [2]) of 16 and a Percent Relative Activity (thioesterase assay, release of radio-labeled free fatty acid) (% relative activity) (16:0-ACP (Palmitate) [3]) of 100. For the same molecule, the Percent Relative Activity (thioesterase assay, release of radio-labeled free fatty acid) (% relative activity) (18:0-ACP (Stearate) [4]) was 61.2 and the Percent Relative Activity (thioesterase assay, release of radio-labeled free fatty acid) (% relative activity) (18:1-ACP (Oleate) [5]) was 40.4.

For “16:0-ACP: radio-labeled palmitic acid thioester of acyl carrier protein, thioesterase substrate”, the “Percent Relative Activity” value (maize PTE) was 100.0%, the “activity relative to that observed with 18:1-ACP” value (maize OTE [6]) was “less than 10%” and the Km (maize OTE [6]) was 25 µM. The “Percent Relative Activity” value (maize OTE [7]) was 14.1%.

With “maize oleoyl-ACP thioesterase, native protein from maize kernels and embryos (enzyme)” the substrate specificity (thioesterase assay with C14-labeled acyl-ACPs) (% of that observed with 18:1-ACP) (12:0-ACP (Laurate) [8]) was less than 10, the substrate specificity (thioesterase assay with C14-labeled acyl-ACPs) (% of that observed with 18:1-ACP) (14:0-ACP (Myristate) [9]) was less than 10 and the Km (16:0-ACP (Palmitate) [10]) was 25 µM. The substrate specificity (thioesterase assay with C14-labeled acyl-ACPs) (% of that observed with 18:1-ACP) (16:0-ACP (Palmitate) [10]) was less than 10, the substrate specificity (thioesterase assay with C14-labeled acyl-ACPs) (% of that observed with 18:1-ACP) (18:0-ACP (Stearate) [11]) was less than 10 and the Km (18:1-ACP (Oleate) [12]) was 0.75 µM.

In the case of “12:0-ACP: radio-labeled lauric acid thioester of acyl carrier protein, thioesterase substrate”, the “Percent Relative Activity” value (maize PTE) is reported as 0.0%, the “activity relative to that observed with 18:1-ACP” value (maize OTE [6]) is reported as “less than 10%” and the “Percent Relative Activity” value (maize OTE [7]) is reported as 0.7%.

In the case of “18:1-ACP: radio-labeled oleic acid thioester of acyl carrier protein, thioesterase substrate”, the “Percent Relative Activity” value (maize PTE) is reported as 40.4%, the Km (maize OTE [6]) is reported as 0.75 µM and the “Percent Relative Activity” value (maize OTE [7]) is reported as 100.0%.

For “maize oleoyl-ACP thioesterase, mature protein expressed in E. coli (pDAB371) (enzyme)”, the Percent Relative Activity (thioesterase assay, release of radio-labeled free fatty acid) (% relative activity) (12:0-ACP (Laurate) [13]) was 0.7, the Percent Relative Activity (thioesterase assay, release of radio-labeled free fatty acid) (% relative activity) (14:0-ACP (Myristate) [14]) was 6.3 and the Percent Relative Activity (thioesterase assay, release of radio-labeled free fatty acid) (% relative activity) (16:0-ACP (Palmitate) [15]) was 14.1. The Percent Relative Activity (thioesterase assay, release of radio-labeled free fatty acid) (% relative activity) (18:0-ACP (Stearate) [16]) was 25.2 and the Percent Relative Activity (thioesterase assay, release of radio-labeled free fatty acid) (% relative activity) (18:1-ACP (Oleate) [17]) was 100.

In the case of “18:0-ACP: radio-labeled stearic acid thioester of acyl carrier protein, thioesterase substrate”, the “Percent Relative Activity” value (maize PTE) is reported as 61.2%, the “activity relative to that observed with 18:1-ACP” value (maize OTE [6]) is reported as “less than 10%” and the “Percent Relative Activity” value (maize OTE [7]) is reported as 25.2%.

B1: maize OTE: maize oleoyl-ACP thioesterase, purified from kernels or expressed in E. coli from pDAB371 (protein)
chain: CARGAPQVSGIEAASPGHAAVTAALAKAEGGDARPSLAERLRLGNLLEDGLSYKESFIVRCYEVGINKTATVETIANLLQEVGCNHAQSVGFSTDGFATTTTMRKLGLIWVTNRMHIEIYKYPAWGDVVEIETWCQEDGRIGTRRDWILKDLANGEVIGRATSKWVMMNQNTRRLQRVSDDVRDEVFMHCPKAPRLAFPEENNGSLKKIPNLSDPAEYSRLGLVPRRADLDMNQHVNNVTYIGWVLESIPQDIIDTHELQTITLDYRRECQQDDIVDSLTCIEEGEEKSMNGSASAAAPHKEERQQFLHCLRFAANGHEINRGRTVWRKLAR
In the case of B1, the “specific activity equivalent to 100% relative activity” value (maize OTE [7]; unit = cleavage of 1 μmol/h free fatty acid at 30° C., 18:1-ACP) is reported as 2.1 units/mg protein.

B2: maize PTE: maize palmitoyl-ACP thioesterase, mature protein expressed in E. coli from pDAB378 (protein)
chain: LPDWSMLLAAITTIFLAAEKQWTMLDWKPRRPDMLTDTFGFGRIIHDGLMFRQNFSIRSYEIGADRTASIETLMNHLQETALNHVKTAGLLGDGFGSTPEMSKRNLFWVVSQMQAIIERYPCWGDTVEVDTWVSANGKNGMRRDWHIRDPITGLTILKATSKWVMMNKLTRKLARIPDEVRTEIEPYFFEHSAIVDEDNRKLPKLPEGQSTSVAKYVRTGLTPRWADLDINQHVNNVKYIAWILESAPISILENHELASIVLDYKRECGRDSVLQSHTSVHTDCNSESGETTLHCEHVLSLESGPTMVKARTMWRPKGTKAQETVVPSSI
In the case of B2, the “specific activity equivalent to 100% relative activity” value (maize PTE; unit = cleavage of 1 μmol/h free fatty acid at 30° C., 16:0-ACP) is reported as 2.1 units/mg protein.
